The results in this text go back to publication PMC11906491.

For this assay, the target named is neonatal FcR (FcRn) (UniProt P55899). Put plainly: BLI + SPR.
Sequence of UniProt P55899 (P55899 24-365): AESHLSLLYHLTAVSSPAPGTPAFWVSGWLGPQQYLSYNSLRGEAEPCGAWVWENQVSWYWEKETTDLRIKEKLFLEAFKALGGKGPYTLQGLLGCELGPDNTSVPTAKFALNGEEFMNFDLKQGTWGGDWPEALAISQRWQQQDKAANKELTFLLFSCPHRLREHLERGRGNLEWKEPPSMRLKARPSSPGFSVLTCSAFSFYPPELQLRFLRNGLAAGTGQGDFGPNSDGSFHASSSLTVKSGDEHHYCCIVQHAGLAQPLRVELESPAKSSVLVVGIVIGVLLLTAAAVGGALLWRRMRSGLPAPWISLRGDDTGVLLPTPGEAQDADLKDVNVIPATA

With reference tocilizumab (antibody), the Relative FcRn affinity (%) came to 96%.
As for forced deamidation TCZ (antibody), the figure is 100%; as for BAT1806/BIIB800 (antibody), 104%.
